Test [1] has as its target T1, Taf8, subunit of Komagataella phaffii TFIID (Komagataella phaffii, UniProt F2QT15 1-517).
T1 construct: Taf8, TFIID subunit of the yeast Komagataella phaffii (formerly Pichia pastoris); putative helices placed in the cryo-EM map; also called KpTaf8; source: endogenous, K. phaffii nuclear extract; co-purified in TFIID by SBP-tagged Taf2 (streptavidin beads, sucrose gradient)
T1 sequence (looked up): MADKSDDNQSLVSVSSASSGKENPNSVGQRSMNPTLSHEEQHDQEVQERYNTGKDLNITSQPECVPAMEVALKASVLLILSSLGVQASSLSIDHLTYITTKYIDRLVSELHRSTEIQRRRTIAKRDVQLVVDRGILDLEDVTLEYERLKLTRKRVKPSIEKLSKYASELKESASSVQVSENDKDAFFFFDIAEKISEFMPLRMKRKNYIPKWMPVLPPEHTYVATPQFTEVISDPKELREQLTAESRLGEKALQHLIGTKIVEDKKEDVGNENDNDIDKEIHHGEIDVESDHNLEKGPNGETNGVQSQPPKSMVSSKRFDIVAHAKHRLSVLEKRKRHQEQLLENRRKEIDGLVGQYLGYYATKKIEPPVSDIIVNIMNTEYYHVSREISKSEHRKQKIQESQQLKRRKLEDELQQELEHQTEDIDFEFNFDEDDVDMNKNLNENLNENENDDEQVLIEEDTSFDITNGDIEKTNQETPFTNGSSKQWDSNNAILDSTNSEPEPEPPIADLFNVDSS
The test can be described thus: cryo-EM structure; purified TFIID (0.4 µM) with two-fold excess of TFIIA and 2.5–3-fold excess of pGAP promoter DNA, cross-linked with 0.1% glutaraldehyde; focused refinement of the lobes (Taf2 lobe 4.5 Å, Twin lobe 4.8 Å); homology models docked. Conditions: both partners purified.

The target in test [2] is T2, Taf2 with C-terminal streptavidin-binding peptide tag, subunit of Komagataella phaffii TFIID (Komagataella phaffii, UniProt F2QRH9 1-1571).
T2 construct: Taf2, TFIID subunit of the yeast Komagataella phaffii (formerly Pichia pastoris); residues 36 to 1194 modelled in the cryo-EM map; bait of the purification; also called SBP-tagged Taf2; source: K. phaffii strain with SBP-tagged Taf2, nuclear extract; purified (streptavidin beads, biotin elution, sucrose gradient)
The test can be described thus: affinity purification with mass spectrometry; TFIID purified from K. phaffii nuclear extract by the SBP tag at the C-terminus of Taf2 (streptavidin beads, 250 mM potassium acetate, elution with 10 mM biotin, 10–30% sucrose gradient); SDS-PAGE and mass spectrometry of the purified complex. Conditions: partners not purified.

In test [3] the target is T3, Taf4, subunit of Komagataella phaffii TFIID (Komagataella phaffii, UniProt F2QWX2 1-411).
T3 construct: Taf4, TFIID subunit of the yeast Komagataella phaffii (formerly Pichia pastoris); histone-fold domain modelled in the cryo-EM map; source: endogenous, K. phaffii nuclear extract; co-purified in TFIID by SBP-tagged Taf2 (streptavidin beads, sucrose gradient)
T3 sequence (looked up): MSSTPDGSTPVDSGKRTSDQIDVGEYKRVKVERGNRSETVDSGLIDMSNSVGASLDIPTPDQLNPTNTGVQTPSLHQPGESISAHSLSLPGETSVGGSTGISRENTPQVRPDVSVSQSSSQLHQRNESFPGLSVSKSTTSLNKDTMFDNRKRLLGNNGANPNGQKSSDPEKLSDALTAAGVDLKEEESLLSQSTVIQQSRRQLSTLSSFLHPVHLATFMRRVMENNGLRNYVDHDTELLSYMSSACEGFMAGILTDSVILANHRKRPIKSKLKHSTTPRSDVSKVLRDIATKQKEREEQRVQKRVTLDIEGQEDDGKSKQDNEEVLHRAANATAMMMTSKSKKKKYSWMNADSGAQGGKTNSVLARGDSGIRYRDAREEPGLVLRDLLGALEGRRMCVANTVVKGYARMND
The test can be described thus: cross-linking; 50 µg purified TFIID, 3 mM BS3, 2 h at 25 °C; trypsin, SCX fractionation, Orbitrap Fusion MS; pLink and Nexus, 5% FDR. Conditions: both partners purified.

Test [4] concerns the target T4, Taf12, subunit of Komagataella phaffii TFIID (Komagataella phaffii, UniProt F2QSK7 1-609).
T4 construct: Taf12, TFIID subunit of the yeast Komagataella phaffii (formerly Pichia pastoris); histone-fold domain modelled in the cryo-EM map; source: endogenous, K. phaffii nuclear extract; co-purified in TFIID by SBP-tagged Taf2 (streptavidin beads, sucrose gradient)
T4 sequence (looked up): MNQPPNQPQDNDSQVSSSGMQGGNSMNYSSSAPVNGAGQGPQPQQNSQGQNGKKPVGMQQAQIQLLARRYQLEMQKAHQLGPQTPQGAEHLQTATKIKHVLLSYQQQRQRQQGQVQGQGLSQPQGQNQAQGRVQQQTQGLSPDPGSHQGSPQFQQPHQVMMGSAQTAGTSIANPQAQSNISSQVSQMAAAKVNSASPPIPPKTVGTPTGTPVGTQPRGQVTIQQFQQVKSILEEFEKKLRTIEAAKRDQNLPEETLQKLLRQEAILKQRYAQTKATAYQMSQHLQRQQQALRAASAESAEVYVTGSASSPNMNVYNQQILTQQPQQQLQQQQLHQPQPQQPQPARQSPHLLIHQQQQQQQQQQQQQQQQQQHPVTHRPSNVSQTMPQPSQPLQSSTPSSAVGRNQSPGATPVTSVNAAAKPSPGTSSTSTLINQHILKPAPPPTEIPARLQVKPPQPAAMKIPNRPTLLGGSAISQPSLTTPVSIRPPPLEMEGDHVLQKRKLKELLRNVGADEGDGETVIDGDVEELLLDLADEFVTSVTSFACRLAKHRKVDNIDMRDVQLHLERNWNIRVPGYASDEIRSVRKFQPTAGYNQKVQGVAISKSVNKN
Described as above. Conditions: both partners purified.

The target of test [5] is T5, Taf5, subunit of Komagataella phaffii TFIID (Komagataella phaffii, UniProt F2QWD3 1-722).
T5 construct: Taf5, TFIID subunit of the yeast Komagataella phaffii (formerly Pichia pastoris); WD40 repeat and NTD (residues 99–243) modelled in the cryo-EM map; two copies in holo-TFIID; source: endogenous, K. phaffii nuclear extract; co-purified in TFIID by SBP-tagged Taf2 (streptavidin beads, sucrose gradient)
T5 sequence (looked up): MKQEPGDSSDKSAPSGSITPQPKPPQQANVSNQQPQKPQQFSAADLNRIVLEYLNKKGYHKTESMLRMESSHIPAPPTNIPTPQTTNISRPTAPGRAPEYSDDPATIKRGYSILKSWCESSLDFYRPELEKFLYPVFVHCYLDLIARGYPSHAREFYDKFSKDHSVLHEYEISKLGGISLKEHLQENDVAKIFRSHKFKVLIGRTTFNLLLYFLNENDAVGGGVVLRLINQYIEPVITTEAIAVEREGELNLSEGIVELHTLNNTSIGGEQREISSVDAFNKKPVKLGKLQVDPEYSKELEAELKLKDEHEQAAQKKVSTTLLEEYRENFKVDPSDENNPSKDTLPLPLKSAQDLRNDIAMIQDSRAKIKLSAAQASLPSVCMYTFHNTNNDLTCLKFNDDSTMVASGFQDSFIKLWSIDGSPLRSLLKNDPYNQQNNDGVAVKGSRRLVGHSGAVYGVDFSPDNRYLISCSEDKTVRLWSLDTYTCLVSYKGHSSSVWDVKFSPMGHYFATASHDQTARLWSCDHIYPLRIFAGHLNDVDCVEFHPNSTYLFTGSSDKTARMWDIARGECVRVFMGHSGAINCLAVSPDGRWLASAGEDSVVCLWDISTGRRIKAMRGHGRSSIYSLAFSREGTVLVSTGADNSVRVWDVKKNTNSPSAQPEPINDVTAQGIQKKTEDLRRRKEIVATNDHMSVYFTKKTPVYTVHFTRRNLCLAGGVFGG
The test is described as above. Conditions: both partners purified.

B1: Taf14, subunit of Komagataella phaffii TFIID (natural protein, UniProt F2QLE3 1-247, looked up)
chain: MSDLKRTVRITTTQNVLKDIPPIEKGFPMRKWSISVSLLNDQGKEIPATIFDKVTYHLHPTFENPVRVFKQPPFKIEEQGWGEFDMKIALTIAEKGGERKISHDLNFLKEKYIVDHVISVPTNKPGLLALLAESGPVPSSEGATTPGLSSVTEKRKTSLVGDVKAKKVKTSSGAVKGGVDLEKLADGLTKLSEDDLLGVVQMVTDNRSPEMNIKNDVDEGEFTMDLYSLPDSLLKSLWEYVKKHADV
notes: Taf14, yeast-specific TFIID subunit of Komagataella phaffii (formerly Pichia pastoris); YEATS domain docked in the Taf2 lobe of the cryo-EM map; source: endogenous, K. phaffii nuclear extract; co-purified in TFIID by SBP-tagged Taf2 (streptavidin beads, sucrose gradient)
Take B1: the binding result in test [1] and in test [2] was “binds” throughout.

B2: Taf11, subunit of Komagataella phaffii TFIID (natural protein, UniProt F2QRB1 1-281, looked up)
chain: MSPKPESEIDQGPSVSVTSAEEKSRLEEVKDVHEDPKAEEGLVSAPQGSDTLGQEGKTEKEQNEAKGDIEEESEESAEEDEEEEEEIVDDQISYALNYLFQDIHEKIRLRETQRDTTQDEFELSRQEKVGLLLENFDQDQMTRYEFFRRANVNKSVAKRIVQSVLGQSINNNVALLVSTVSKMFVGEMVEKAKEVQSRRQKAQILEQISQRKAAIKNIRKRDLDESVVDQIMNSKRIRIPKDEPLSPEDIREAWRLYQLETNVLPSNQWRRQGGGDGNMFR
notes: Taf11, TFIID subunit of the yeast Komagataella phaffii (formerly Pichia pastoris); histone-fold domain modelled in the cryo-EM map; source: endogenous, K. phaffii nuclear extract; co-purified in TFIID by SBP-tagged Taf2 (streptavidin beads, sucrose gradient)
In the case of B2, the binding result in test [3], in test [4] and in test [5] was “binds” each time.

For the origin of these results see PMC6220335, “Molecular structure of promoter-bound yeast TFIID” (Nature Communications, 2018).
